{
  "source": "patent US20220267415A1",
  "molecular_target": "SARS-CoV-2 spike protein, wild type, on live virus (SARS-CoV-2-mNG / USA-WA1/2020) (SARS-CoV-2) (UniProt P0DTC2)",
  "assay": "cell-based or functional assay",
  "data": [
    {"substance": "IgG antibody carrying the VH and VL regions of Sotrovimab (S309)", "values": [
      {"measurement": "Neutralization EC50", "value": 0.17, "unit": "µg/mL"}
    ]}
  ]
}
